Patent US20080166343A1 (CSL, published 2008)

Assays:
[1] = target: T1, human IL-13Rα1 on cells (NHDF cells; cells of whole human blood) (human, UniProt P78552 27-427); test: cell-based or functional assay
T1 sequence: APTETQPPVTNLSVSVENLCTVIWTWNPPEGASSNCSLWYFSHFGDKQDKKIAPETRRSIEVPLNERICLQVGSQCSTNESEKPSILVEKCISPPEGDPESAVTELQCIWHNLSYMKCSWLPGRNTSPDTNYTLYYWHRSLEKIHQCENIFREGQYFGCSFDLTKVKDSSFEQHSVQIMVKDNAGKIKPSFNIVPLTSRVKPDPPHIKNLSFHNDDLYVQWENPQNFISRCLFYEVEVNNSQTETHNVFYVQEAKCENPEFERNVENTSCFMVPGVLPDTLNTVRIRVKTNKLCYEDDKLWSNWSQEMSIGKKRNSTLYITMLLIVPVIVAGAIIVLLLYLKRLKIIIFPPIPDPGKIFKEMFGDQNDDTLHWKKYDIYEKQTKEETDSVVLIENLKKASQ

[2] = target: T1, human IL-13Rα1 on cells (NHDF cells; …); test: cell-based or functional assay; remark: listed apart in the source

B1: 10G5-3 (antibody, human IgG4 S228P, kappa, V domains shown)
VH: EVQLVQSGAEVKKPGESLKISCKGSGYSFTSYWIGWVRQMPGKGLEWMGVIYPGDSYTRYSPSFQGQVTISADKSISTAYLQWSSLKASDTAMYYCARMPNWGSFDYWGQGTLVTVSS
VL: EIVLTQSPGTLSLSPGERATLSCRASQSISSSYLAWYQQKPGQAPRLLIYGASSRATGIPDRFSGSGSGTDFTLTISRLEPEDFAVYYCQQYEAFGQGTKVEIKR
With B1 the “EC50, inhibition of eotaxin release from NHDF cells upon stimulation by IL-13” value [1] was 0.614 µg/mL and the “EC50, inhibition of eotaxin release from NHDF cells upon stimulation by IL-4” value [2] was 0.983 µg/mL.
